Legend:
[1] = target: T1, glutaminase (GLS), D3Z7P3
T1 chain: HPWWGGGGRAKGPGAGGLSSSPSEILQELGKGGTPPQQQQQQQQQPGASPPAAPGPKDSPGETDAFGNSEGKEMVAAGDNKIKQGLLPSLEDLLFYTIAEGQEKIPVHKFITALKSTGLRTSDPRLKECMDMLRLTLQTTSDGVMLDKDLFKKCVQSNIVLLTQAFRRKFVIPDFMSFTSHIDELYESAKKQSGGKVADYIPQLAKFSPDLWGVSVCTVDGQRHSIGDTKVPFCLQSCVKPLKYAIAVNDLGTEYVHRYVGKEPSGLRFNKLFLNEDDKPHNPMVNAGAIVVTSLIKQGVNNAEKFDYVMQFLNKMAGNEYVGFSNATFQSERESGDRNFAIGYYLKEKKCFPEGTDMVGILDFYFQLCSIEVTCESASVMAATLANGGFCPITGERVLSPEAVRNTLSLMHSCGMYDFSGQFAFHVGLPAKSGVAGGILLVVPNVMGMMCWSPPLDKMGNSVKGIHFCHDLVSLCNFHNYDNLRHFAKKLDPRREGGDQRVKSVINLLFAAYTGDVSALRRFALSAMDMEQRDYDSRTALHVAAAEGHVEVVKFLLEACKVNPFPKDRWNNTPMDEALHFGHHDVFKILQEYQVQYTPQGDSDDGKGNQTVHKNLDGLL

[2] = target: glutamate dehydrogenase (GDH), P26443
[3] = target: T2, Hydroxyacyl-CoA Dehydrogenase Trifunctional Multienzyme Complex Subunit Beta (HADHB), Q99JY0
T2 chain: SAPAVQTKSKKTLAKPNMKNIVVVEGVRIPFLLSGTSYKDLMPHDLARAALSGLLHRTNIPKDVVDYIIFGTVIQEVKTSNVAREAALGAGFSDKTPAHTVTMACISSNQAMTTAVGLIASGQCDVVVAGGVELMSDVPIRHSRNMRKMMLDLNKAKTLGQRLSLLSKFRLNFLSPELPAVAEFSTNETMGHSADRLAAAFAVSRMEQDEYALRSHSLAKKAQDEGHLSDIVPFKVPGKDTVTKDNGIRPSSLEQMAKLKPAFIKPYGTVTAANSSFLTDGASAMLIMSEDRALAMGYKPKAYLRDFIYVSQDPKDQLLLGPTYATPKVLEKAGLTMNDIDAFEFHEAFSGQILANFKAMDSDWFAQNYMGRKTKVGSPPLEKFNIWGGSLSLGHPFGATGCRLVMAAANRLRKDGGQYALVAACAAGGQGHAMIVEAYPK

[4] = target: T3, isocitrate dehydrogenase, P54071
T3 chain: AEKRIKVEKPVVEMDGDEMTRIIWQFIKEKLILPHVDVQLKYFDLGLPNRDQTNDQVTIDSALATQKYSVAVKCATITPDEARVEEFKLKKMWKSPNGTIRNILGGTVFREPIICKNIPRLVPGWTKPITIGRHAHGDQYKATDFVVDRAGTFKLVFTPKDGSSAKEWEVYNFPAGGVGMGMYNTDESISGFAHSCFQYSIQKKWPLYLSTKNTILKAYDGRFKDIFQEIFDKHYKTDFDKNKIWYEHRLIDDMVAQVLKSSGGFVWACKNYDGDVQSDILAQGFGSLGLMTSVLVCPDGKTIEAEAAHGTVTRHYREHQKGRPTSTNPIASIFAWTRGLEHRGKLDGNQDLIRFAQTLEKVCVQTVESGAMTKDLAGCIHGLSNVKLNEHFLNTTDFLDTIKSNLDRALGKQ

[5] = target: T4, malate dehydrogenase, P08249
T4 chain: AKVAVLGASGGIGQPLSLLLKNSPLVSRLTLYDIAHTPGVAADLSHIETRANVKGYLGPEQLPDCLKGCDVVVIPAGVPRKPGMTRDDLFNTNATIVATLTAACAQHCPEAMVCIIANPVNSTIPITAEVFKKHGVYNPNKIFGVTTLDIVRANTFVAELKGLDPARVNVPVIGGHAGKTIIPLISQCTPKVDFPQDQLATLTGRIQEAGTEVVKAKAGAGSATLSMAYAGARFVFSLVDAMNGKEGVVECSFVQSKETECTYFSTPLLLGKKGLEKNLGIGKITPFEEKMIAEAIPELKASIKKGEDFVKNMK

[6] = target: pyruvate kinase M (PKM), P52480
[7] = target: lactate dehydrogenase (LDH), P06151
[8] = target: T5, enolase 1 (ENO1), P17182
T5 chain: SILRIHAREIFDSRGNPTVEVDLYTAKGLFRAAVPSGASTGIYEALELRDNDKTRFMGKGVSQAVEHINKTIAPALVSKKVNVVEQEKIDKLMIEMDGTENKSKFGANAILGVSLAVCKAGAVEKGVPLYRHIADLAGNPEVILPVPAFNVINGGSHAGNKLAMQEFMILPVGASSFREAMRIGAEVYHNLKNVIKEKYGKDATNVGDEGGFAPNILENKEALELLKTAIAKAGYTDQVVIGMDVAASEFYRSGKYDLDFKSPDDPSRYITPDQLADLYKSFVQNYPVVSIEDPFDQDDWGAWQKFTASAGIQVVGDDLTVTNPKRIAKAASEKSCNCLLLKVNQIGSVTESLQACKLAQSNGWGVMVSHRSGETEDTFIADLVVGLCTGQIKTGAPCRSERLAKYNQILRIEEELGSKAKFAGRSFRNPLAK

[9] = target: succinate dehydrogenase subunit alpha (SDHA), Q8K2B3
[10] = target: T6, aldolase A (ALDOA), P05064
T6 chain: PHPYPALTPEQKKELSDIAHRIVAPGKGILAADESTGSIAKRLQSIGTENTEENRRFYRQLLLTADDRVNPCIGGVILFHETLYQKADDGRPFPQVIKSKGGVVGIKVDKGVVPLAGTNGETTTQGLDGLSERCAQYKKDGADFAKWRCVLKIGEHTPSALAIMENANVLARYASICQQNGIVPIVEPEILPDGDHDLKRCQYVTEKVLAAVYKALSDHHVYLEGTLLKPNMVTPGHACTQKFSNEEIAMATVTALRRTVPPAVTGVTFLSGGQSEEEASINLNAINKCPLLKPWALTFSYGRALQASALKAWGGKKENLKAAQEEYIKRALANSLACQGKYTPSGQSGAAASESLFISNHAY

[11] = target: T7, phosphoglycerate kinase 1 (PGK1), P09411
T7 chain: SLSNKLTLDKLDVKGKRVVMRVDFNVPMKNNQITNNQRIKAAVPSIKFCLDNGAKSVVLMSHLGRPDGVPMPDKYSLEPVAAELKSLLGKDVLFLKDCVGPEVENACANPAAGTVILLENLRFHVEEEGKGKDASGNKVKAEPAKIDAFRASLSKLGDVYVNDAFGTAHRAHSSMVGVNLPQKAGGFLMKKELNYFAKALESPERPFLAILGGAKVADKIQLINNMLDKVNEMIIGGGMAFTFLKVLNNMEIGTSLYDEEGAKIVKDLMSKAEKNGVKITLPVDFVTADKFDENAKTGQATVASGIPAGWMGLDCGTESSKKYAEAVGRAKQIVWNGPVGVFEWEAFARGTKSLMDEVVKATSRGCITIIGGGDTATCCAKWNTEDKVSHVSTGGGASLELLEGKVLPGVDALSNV

[12] = target: succinate-CoA ligase alpha subunit (SUCLG1), Q9WUM5
[13] = target: T8, aconitase 2 (ACO2), Q99KI0
T8 chain: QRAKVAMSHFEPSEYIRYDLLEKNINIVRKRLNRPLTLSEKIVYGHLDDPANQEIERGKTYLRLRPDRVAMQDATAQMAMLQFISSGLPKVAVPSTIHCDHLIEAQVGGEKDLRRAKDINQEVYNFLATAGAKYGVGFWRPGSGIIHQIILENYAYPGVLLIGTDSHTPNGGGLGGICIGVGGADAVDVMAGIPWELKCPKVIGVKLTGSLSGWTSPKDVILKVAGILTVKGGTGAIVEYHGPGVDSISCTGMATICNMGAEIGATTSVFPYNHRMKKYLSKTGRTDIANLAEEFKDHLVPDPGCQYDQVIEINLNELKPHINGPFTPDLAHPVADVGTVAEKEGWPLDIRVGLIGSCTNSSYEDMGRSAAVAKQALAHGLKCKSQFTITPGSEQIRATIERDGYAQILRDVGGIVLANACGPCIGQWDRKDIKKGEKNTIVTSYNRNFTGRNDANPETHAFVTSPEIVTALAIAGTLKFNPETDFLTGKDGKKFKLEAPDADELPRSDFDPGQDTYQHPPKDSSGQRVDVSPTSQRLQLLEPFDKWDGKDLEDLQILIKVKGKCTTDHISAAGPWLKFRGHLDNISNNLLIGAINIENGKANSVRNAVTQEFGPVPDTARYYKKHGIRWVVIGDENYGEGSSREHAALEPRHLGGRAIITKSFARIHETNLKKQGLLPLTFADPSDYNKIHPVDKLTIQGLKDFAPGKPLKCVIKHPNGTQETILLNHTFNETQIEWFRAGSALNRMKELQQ

[14] = target: glyceraldehyde-3-phosphate dehydrogenase (GAPDH), P16858
Sequence of glyceraldehyde-3-phosphate dehydrogenase (GAPDH), P16858 (P16858 whole entry): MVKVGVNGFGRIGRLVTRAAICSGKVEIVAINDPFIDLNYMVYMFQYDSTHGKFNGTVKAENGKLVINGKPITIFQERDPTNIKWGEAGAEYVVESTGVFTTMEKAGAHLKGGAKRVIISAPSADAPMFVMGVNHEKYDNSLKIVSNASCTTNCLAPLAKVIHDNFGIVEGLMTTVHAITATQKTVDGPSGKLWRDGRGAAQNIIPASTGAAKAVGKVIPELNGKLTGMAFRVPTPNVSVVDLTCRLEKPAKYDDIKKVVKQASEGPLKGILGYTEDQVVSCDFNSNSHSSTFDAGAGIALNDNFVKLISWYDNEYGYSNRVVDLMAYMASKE

Sequence of succinate dehydrogenase subunit alpha (SDHA), Q8K2B3 (Q8K2B3 43-664): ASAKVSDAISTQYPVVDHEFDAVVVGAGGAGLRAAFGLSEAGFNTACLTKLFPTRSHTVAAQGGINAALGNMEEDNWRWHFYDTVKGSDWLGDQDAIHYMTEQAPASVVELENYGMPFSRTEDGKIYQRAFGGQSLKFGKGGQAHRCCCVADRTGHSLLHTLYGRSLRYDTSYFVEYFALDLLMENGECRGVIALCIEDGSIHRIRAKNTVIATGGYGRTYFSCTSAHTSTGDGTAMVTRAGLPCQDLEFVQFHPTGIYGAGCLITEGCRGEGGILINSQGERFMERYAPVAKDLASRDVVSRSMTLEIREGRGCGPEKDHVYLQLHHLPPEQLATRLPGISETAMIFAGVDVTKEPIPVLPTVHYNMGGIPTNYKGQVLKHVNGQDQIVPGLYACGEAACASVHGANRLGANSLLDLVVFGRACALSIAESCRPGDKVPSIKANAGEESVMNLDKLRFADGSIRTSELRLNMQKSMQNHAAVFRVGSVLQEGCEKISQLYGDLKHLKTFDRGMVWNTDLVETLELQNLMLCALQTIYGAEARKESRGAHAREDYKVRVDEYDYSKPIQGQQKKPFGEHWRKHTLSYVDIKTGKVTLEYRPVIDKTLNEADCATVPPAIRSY
Sequence of succinate-CoA ligase alpha subunit (SUCLG1), Q9WUM5 (Q9WUM5 35-346): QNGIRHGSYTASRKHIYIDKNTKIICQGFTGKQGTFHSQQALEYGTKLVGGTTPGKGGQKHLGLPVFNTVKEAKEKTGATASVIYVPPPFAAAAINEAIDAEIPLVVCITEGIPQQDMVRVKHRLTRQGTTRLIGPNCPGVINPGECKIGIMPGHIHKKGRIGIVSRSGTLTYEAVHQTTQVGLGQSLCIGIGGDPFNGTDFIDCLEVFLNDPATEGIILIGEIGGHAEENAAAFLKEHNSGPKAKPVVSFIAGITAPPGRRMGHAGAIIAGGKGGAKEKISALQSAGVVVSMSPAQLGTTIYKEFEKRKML
Sequence of glutamate dehydrogenase (GDH), P26443 (P26443 54-558): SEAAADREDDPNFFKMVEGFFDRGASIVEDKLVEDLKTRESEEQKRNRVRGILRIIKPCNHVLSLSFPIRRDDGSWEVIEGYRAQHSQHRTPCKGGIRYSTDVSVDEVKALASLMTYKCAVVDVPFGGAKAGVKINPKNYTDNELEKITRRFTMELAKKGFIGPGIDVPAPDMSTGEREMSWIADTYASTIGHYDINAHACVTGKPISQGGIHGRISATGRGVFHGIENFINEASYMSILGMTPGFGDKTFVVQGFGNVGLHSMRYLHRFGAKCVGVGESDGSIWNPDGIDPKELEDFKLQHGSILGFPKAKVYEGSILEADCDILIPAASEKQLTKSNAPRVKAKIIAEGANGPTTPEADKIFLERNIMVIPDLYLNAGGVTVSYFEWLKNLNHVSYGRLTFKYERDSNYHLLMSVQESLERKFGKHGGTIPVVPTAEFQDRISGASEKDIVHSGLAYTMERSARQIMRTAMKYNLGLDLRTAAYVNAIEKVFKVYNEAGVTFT
Sequence of pyruvate kinase M (PKM), P52480 (P52480 whole entry): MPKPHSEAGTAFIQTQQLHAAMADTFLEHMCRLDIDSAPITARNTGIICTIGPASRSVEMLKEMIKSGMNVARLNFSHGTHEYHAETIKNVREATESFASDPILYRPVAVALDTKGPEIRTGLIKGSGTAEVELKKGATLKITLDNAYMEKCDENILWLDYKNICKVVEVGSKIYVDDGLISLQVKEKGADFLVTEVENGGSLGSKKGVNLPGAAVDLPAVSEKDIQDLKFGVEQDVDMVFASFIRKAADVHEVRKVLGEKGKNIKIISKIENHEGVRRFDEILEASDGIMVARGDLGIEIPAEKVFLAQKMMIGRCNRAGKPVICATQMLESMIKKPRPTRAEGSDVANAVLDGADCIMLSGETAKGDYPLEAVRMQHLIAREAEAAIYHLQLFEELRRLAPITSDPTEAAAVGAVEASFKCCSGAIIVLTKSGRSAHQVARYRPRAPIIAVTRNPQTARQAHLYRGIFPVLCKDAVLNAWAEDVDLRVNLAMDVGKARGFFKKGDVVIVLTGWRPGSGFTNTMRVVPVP

B1: Sirt2 (protein)
chain: AEPDPSDPLETQAGKVQEAQDSDSDTEGGATGGEAEMDFLRNLFTQTLGLGSQKERLLDELTLEGVTRYMQSERCRKVICLVGAGISTSAGIPDFRSPSTGLYANLEKYHLPYPEAIFEISYFKKHPEPFFALAKELYPGQFKPTICHYFIRLLKEKGLLLRCYTQNIDTLERVAGLEPQDLVEAHGTFYTSHCVNTSCRKEYTMGWMKEKIFSEATPRCEQCQSVVKPDIVFFGENLPSRFFSCMQSDFSKVDLLIIMGTSLQVQPFASLISKAPLATPRLLINKEKTGQTDPFLGMMMGLGGGMDFDSKKAYRDVAWLGDCDQGCLALADLLGWKKELEDLVRREHANIDAQSGSQAPNPSTTISPGKSPPPAKEAARTKEKEEQQ
- acetylated peptide intensity (acetyl-lysine IP, LC-MS/MS, EIC) [1]: peptide FITALKSTG (SEQ ID NO:13) from GLS ... acetylation site K169 ... increased acetylation intensity in Sirt2^-/- sample versus WT
- acetylated peptide intensity (acetyl-lysine IP, LC-MS/MS, EIC) [2]: peptide LTFKYER (SEQ ID NO:14) from GDH ... acetylation site K457 ... increased acetylation intensity in Sirt2^-/- sample versus WT
- acetylated peptide intensity (acetyl-lysine IP, LC-MS/MS, EIC) [3]: peptide GQQQVFKGLNDK (SEQ ID NO:12) from HADHB ... acetylation site K406 ... increased acetylation intensity in Sirt2^-/- sample versus WT
- acetylated peptide intensity (acetyl-lysine IP, LC-MS/MS, EIC) [4]: peptide NILGGTVFREPIICKNIPR (SEQ ID NO:8) from isocitrate dehydrogenase ... acetylation site K155 ... increased acetylation intensity in Sirt2^-/- sample versus WT
- acetylated peptide intensity (acetyl-lysine IP, LC-MS/MS, EIC) [5]: peptide ETECTYFSTPLLLGKK (SEQ ID NO:11) from malate dehydrogenase ... acetylation site K296 ... increased acetylation intensity in Sirt2^-/- sample versus WT
- acetylated peptide intensity (acetyl-lysine IP, LC-MS/MS, EIC) [6]: peptide CCSGAIIVLTKSGR (SEQ ID NO:6) from pyruvate kinase M ... acetylation site K433 ... increased acetylation intensity in Sirt2^-/- sample versus WT
- acetylated peptide intensity (acetyl-lysine IP, LC-MS/MS, EIC) [7]: peptide FIIPNIVKYSPHCK (SEQ ID NO:3) from lactate dehydrogenase ... acetylation site K126 ... increased acetylation intensity in Sirt2^-/- sample versus WT
- acetylated peptide intensity (acetyl-lysine IP, LC-MS/MS, EIC) [8]: peptide SCNCLLLKVNQIGSVTESLQACK (SEQ ID NO:2) from enolase 1 ... acetylation site K343 ... increased acetylation intensity in Sirt2^-/- sample versus WT
- acetylated peptide intensity (acetyl-lysine IP, LC-MS/MS, EIC) [9]: peptide ISQLYGDLKHLK (SEQ ID NO:10) from Succinate Dehydrogenase Subunit Alpha ... acetylation site K544 ... increased acetylation intensity in Sirt2^-/- sample versus WT
- acetylated peptide intensity (acetyl-lysine IP, LC-MS/MS, EIC) [10]: peptide GILAADESTGSIAKR (SEQ ID NO:1) from aldolase A ... acetylation site K42 ... increased acetylation intensity in Sirt2^-/- sample versus WT
- acetylated peptide intensity (acetyl-lysine IP, LC-MS/MS, EIC) [11]: peptide SVVLMSHLGRPDGVPMPDKYSLEPVAAELK (SEQ ID NO:4) from phosphoglycerate kinase 1 ... acetylation site K75 ... increased acetylation intensity in Sirt2^-/- sample versus WT
- acetylated peptide intensity (acetyl-lysine IP, LC-MS/MS, EIC) [12]: peptide SSDEAYAIAKK (SEQ ID NO:9) from Succinyl-CoA Ligase ... acetylation site K125 ... increased acetylation intensity in Sirt2^-/- sample versus WT
- acetylated peptide intensity (acetyl-lysine IP, LC-MS/MS, EIC) [13]: peptide NFTGRNDANPETHAFVTSPEIVTALAIAGTLKFNPETDFLTGKDGK (SEQ ID NO:7) from aconitase 2 ... acetylation site K506 ... increased acetylation intensity in Sirt2^-/- sample versus WT
- acetylated peptide intensity (acetyl-lysine IP, LC-MS/MS, EIC) [14]: peptide WGEAGAEYVVESTGVFTTMEKAGAHLK (SEQ ID NO:5) from glyceraldehyde-3-phosphate dehydrogenase ... acetylation site K105 ... increased acetylation intensity in Sirt2^-/- sample versus WT
